Measured values reported in publication PMC8718839 (iScience, 2021).

T1: (ActRIIB)2-Fc (UniProt Q13705-1 19-137)
T1 sequence: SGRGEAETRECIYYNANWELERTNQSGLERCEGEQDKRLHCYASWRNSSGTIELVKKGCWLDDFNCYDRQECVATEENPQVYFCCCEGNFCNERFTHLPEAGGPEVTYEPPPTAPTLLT

T2: ActRIIB-Alk4-Fc (human, UniProt Q13705;P36896)
T2 sequence 1: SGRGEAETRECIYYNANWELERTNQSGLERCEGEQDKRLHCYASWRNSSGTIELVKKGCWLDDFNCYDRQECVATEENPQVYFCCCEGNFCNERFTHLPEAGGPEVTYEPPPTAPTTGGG
T2 sequence 2: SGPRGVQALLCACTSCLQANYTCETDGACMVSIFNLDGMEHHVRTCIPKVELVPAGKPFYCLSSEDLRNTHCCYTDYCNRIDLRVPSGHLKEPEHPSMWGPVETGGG

T3: ActRIIB-Fc (UniProt Q13705 19-137)
T3 sequence: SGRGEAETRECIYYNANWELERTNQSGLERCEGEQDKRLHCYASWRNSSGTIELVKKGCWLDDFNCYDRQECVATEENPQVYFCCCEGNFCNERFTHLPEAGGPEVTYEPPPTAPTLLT


Assays:
[1] = biological target: the molecule itself; experiment: crystal structure
[2] = biological target: T1, (ActRIIB)2-Fc; experiment: SPR
[3] = biological target: T2, ActRIIB-Alk4-Fc; experiment: SPR
[4] = biological target: T3, ActRIIB-Fc; experiment: SPR

| Kd [2] [nM] | Kd [3] [nM] | Kd [4] [nM] | Binder | binding result [1] |
| --- | --- | --- | --- | --- |
| 0.0125 | 0.0304 | 0.108 | Activin A mature (ligand) GLECDGKVNICCKKQFFVSFKDIGWNDWIIAPSGYHANYCEGECPSHIAGTSGSSLSFHSTVINHYRMRGHSPFANLKSCCVPTKLRPMSMLYYDDGQNIIKKDIQNMIVEECGCS | binds |
| 0.00191 | 0.00424 | 0.0147 | GDF11 mature (ligand) NLGLDCDEHSSESRCCRYPLTVDFEAFGWDWIIAPKRYKANYCSGQCEYMFMQKYPHTHLVQQANPRGSAGPCCTPTKMSPINMLYFNDKQQIIYGKIPGMVVDRCGCS | binds |
